Experimental data published in US20260234242A1 (HAINAN SIMCERE ZAIMING PHARMACEUTICAL, published 2026).

T1: his-tagged human CDH6 extracellular region protein (hCDH6 ECD-his) (human, UniProt P55285 19-615)
T1 construct: also called Human CDH6-his; hCDH6-his; not shown: his tag
T1 sequence: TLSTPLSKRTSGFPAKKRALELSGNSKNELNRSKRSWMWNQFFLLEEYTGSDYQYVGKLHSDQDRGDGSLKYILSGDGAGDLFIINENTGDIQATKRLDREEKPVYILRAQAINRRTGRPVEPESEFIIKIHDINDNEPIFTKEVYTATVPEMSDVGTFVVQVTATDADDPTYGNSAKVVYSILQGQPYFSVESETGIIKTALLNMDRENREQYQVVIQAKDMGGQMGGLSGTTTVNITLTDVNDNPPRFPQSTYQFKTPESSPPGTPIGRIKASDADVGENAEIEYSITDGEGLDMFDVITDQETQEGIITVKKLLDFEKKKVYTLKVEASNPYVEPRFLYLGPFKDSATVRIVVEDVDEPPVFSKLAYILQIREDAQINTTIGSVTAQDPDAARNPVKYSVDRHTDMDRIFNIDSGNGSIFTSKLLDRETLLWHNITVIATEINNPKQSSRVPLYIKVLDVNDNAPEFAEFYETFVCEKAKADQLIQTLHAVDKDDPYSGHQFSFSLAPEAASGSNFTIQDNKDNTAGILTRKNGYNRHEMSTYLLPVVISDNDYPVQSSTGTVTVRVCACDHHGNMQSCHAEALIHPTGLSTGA

T2: human CDH6 with EC2 removed, on HEK293T cells (HEK293T-hCDH6-EC2 deletion) (human, UniProt P55285 54-790)
T2 construct: Signal peptide not removed here
T2 sequence: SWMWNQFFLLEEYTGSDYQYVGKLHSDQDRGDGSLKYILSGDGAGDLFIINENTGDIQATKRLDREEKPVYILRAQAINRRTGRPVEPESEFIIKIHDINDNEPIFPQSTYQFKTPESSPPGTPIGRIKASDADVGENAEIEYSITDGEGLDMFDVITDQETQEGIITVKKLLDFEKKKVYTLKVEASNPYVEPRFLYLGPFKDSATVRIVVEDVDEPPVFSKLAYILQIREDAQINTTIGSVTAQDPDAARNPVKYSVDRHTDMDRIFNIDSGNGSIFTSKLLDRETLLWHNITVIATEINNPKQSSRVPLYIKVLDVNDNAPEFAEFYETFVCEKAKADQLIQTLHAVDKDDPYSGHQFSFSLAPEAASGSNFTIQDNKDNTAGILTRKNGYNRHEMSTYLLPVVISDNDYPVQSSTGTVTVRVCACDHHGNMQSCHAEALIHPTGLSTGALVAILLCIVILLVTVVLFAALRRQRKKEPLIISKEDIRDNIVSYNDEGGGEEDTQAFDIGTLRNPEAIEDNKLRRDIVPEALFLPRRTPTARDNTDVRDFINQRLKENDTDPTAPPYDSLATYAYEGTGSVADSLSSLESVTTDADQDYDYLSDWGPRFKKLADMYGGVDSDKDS

T3: human CDH6 with EC3 removed, on HEK293T cells (HEK293T-hCDH6-EC3 deletion) (human, UniProt P55285 54-790)
T3 construct: Signal peptide not removed here
T3 sequence: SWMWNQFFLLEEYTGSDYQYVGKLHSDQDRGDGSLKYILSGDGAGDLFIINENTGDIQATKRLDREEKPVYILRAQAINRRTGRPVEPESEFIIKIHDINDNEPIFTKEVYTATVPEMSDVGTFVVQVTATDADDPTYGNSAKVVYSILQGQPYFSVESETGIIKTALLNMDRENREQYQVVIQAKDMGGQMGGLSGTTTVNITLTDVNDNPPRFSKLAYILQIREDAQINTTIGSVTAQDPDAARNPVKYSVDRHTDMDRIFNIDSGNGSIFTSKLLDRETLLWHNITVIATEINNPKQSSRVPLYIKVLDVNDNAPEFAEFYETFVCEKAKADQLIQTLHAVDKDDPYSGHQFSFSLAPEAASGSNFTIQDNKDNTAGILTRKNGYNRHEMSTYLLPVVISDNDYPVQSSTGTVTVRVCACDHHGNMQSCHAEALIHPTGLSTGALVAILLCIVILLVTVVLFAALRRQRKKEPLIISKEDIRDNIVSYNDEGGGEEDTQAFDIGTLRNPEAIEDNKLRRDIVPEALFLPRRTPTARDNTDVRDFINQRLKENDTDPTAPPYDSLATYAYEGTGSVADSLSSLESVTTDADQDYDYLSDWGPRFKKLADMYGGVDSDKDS


Key:
[1] = biological target: T1, his-tagged human CDH6 extracellular …; experiment: ELISA, coated antigen
[2] = biological target: T2, human CDH6 with EC2 removed, on HEK293T …; experiment: FACS, HEK293T-hCDH6-EC2 deletion cells
[3] = biological target: T1, his-tagged human CDH6 extracellular …; experiment: ELISA, coated antigen; ELISA, hCDH6 ECD-his coated at 1 µg/mL, antibody in solution; chimeric antibody run (Table 5)
Method: Human CDH6 protein (hCDH6 ECD-his, conventionally synthesized), monkey CDH6 protein (cynoCDH6 ECD-his, conventionally synthesized; the cynoCDH6 ECD sequence was derived from Uniprot #A0A2K5TW62 (19-615)), and murine CDH6 protein (mCDH6 ECD-his, conventionally synthesized; the mCDH6 ECD sequence was derived from Uniprot #P97326 (19-615)) were diluted with PBS to a final concentration of 1 μg/mL, and added to a 96-well ELISA plate at 100 μL/well. The plate was incubated at 4° C. overnight. The next day, the plate was washed 3 times with a plate washing solution (PBS+0.01% (v/v) Tween 20), and a blocking buffer (PBS+0.01% (v/v) Tween 20+2% (w/w) BSA) was added for blocking at room temperature for 2 h. The blocking buffer was discarded, and the plate was washed 3 times. The chimeric antibodies were diluted with 1% BSA+PBS (purchased from Cytiva, Cat. No. SH30264.01) and added to the 96-well plate at 50 μL/well. After incubation at 37° C. for 2 h, the plate was washed 3 times with a plate washing solution. […] The plate was incubated at 37° C. for 1 h and then washed 5 times with a plate washing solution. […] OD450 nm values were read using a microplate reader (Biotek). Analysis was performed by the GraphPad Prism software, data were fitted, and EC50 values were calculated. […]

[4] = biological target: T3, human CDH6 with EC3 removed, on HEK293T …; experiment: FACS, HEK293T-hCDH6-EC3 deletion cells

| EC50 [1] | Max OD450 [1] | Binder | further results |
| --- | --- | --- | --- |
| 0.029 nM | 2.61 OD450 | hCDH6-1-H2L3 (antibody, V domains shown, Humanized) VH: EVQLVQSGAEVKKPGSSVKVSCKASGYTFTNYWMHWVRQAPGQGLEWMGDIDPSHSETHYTQKFKDRVTITVDKSTSTAYMELSSLRSEDTAVYYCARGDLGRFDYWGQGTTVTVSS VL: DIQMTQSPSSLSASVGDRVTITCRASESVSIHGTHLMHWYQQKPGKPPKLLIYAASNLESGVPSRFSGSGSETDFTFTISSLQPEDIATYYCQQSFEDPWTFGGGTKVEIK |  |
|  |  | CHI-CDH6-4 (antibody, human IgG1, kappa, V domains shown, also called CH1-CDH6-4; chimeric antibody of murine CDH6-4) VH: QVQLQQSGPELVKPGASVKISCKASGYAFSNFWMNWVKQRPGKGLEWIGWIYPGDGDTNYNGKFKDKATLTADKSSSTAYIQLSSLTSEDSAVYFCARLYDAWGFFDYWGQGTTLTVSS VL: QIVLTQSPAIMSASPGQKVTITCSASSSVNYMHWYQQKLGSSPKLWIYDKSKLAPGVPARFSGSGSGTSYSLTISSMEAEDAASYFCHQWSSYPPMTFGGGTKLEIKR | binding result [2]: no binding |
| 0.032 nM | 2.59 OD450 | CHI-CDH6-1 (antibody, human IgG1, kappa, V domains shown, also called CHI-hCDH6-1; CH1-CDH6-1) VH: QVQLQQPGAELVRPGSSVKLSCKASGYTFTNYWMHWVKQRPIEGLEWIGDIDPSHSETHYTQKFKDKATLTVDKSSSTAYMQLSSLTSEDSAVYYCARGDLGRFDYWGQGTTLTVSS VL: DIVLTQSPASLAVSLGQRATISCRASESVSIHGTHLMHWYQQKSGQPPKLLIYAASNLESGVPARFSGSGSETDFTFNIHPVEEEDAATYFCQQSFEDPWTFGGGTKLEIKR |  |
|  |  | CHI-CDH6-14 (antibody, human IgG1, kappa, V domains shown, also called CHI-hCDH6-14; CH1-CDH6-14) VH: QIQLQQSGPELVKPGTSVKISCKASGYTFTDNYINWVRQRPGQGLEWIGWIYPGTGNSYYNEKFKGKATLTVDTSSSTAYMQFSSLTSEDSAVYLCASSYGDSFDYWGQGTTLTVSS VL: DIQMTQTTSSLSASLGNRVTISCRASQDIRNYLNWYQQKPDGTFKLLISYTSRLHSGVPSRFSGSGSGTDYSLTVSNLEPEDIATYYCQQYSQLPWTFGGGSRLEIKR | EC50 [3]: 0.044 nM |
|  |  | CHI-CDH6-12 (antibody, human IgG1, kappa, V domains shown, also called CH1-CDH6-12; chimeric antibody of murine CDH6-12) VH: EVNLVESGGGLVQPGDSLTLSCSASGFTFTDYYMSWVRQFPGKALEWLALIRNKANSYTTEYSASVKGRFTISRDNSQSILYLQMNALRAEDSATYYCARDSYYSHDGFAYWGQGTLVTVSA VL: DIVLTQSPASLAVSLGQRATISCRASKSVSTSSYTYMHWYQQKPGQPPKLLIKFASYLESGVPARFSGSGSGTDFTLNIHPVEEEDAATYYCQHSREFPFTFGTGTKLEIKR | binding result [4]: no binding |
